Reference: publication PMC9547493 (2020)
Bridge positions count the residues as written; N and C are the ends. Ends that are not written are not given here. γCp(RSS) = N-terminal (R,S,S)-cyclopropane γ-amino acid; γCp(SRR) = N-terminal (S,R,R)-cyclopropane γ-amino acid

Legend:
[1] = molecular target: T1, CeiPGM-γCp(RSS) (synthetic construct, thioether N-14); assay: SPR
T1 chain: {γCp(RSS)}-FSISGIEWNGPEIC

[2] = molecular target: T2, CeiPGM-γCp(SRR) (synthetic construct, thioether N-14); assay: SPR
T2 chain: {γCp(SRR)}-FSISGIEWNGPEIC

- Kd [1]: 0.3 nM
- Kd [2]: 0.8 nM
B1: CeiPGM (cofactor-independent phosphoglycerate mutase) (protein)
chain: MFVALGAQIYRQYFGRRGMAMANNSSVANKVCLIVIDGWGVSEDPYGNAILNAQTPVMDKLCSGNWAQIEAHGLHVGLPEGLMGNSEVGHLNIGAGRVIYQDIVRINLAVKNNKFVTNESLVDACDRAKNGNGRLHLAGLVSDGGVHSHIDHMFALVKAIKELGVPELYLHFYGDGRDTSPNSGVGFLEQTLEFLEKTTGYGKLATVVGRYYAMDRDNRWERINVAYEAMIGGVGETSDEAGVVEVVRKRYAADETDEFLKPIILQGEKGRVQNDDTIIFFDYRADRMREISAAMGMDRYKDCNSKLAHPSNLQVYGMTQYKAEFPFKSLFPPASNKNVLAEWLAEQKVSQFHCAETEKYAHVTFFFNGGLEKQFEGEERCLVPSPKVATYDLQPEMSAAGVADKMIEQLEAGTHPFIMCNFAPPDMVGHTGVYEAAVKACEATDIAIGRIYEATQKHGYSLMVTADHGNAEKMKAPDGGKHTAHTCYRVPLTLSHPGFKFVDPADRHPALCDVAPTVLAIMGLPQPAEMTGVSIVQKI
